“Also recorded” adds a separate entry of the source.
Assays:
neuroblastoma N18 cells = assay: Neurite outgrowth assay in N18 cells; type: cell-based; details: soluble or immobilized on plastic (500 μg/ml coating), 17 hours
Procedure: 96-well microtiter plates were coated overnight at 4° C. with the TS or peptides or fragments thereof, or with control proteins laminin (Ln) or bovine serum albumin (BSA) at 500 μg/ml. After removing the compounds, the plates were further incubated with 1% BSA for 1 hour at room temperature and immediately used as substratum for PC12 or N18 (Prasad, K., Biol. Rev. Camb. Philos. Soc., 66:431-451 (1991)) cells in serum-free RPMI/0.2% BSA. Neurite outgrowth was measured using a phase-contrast microscope 17 hours later.

PC12 cells = assay: Protection of PC12 cells from apoptosis induced by trophic factor withdrawal (DAPI, TUNEL); type: cell-based; details: serum-free RPMI-1640/0.2% BSA, 17 hours, DAPI or TUNEL
Description: PC12 cells were obtained from ATCC (Manassas, Va. (Accession No. CRL-1721)) and cultured on collagen-coated dishes in RPMI 1640 supplemented with 10% horse serum and 5% fetal bovine serum (Greene, L., and Tishler, A., Proc. Natl. Acad. Sci. USA, 73:2424-2428 (1976)). For differentiation and survival experiments, cells were washed three times in serum-free RPMI/0.2% BSA, plated in the same medium in collagen-coated plastic dishes at 2×10^5/ml, without and with growth factors, TS, recombinant proteins, synthetic peptides, for the time and concentrations indicated in the Figures.
Cell staining with 4,6-diamino-2-phenylindole (DAPI). Cells were fixed with 4% formaldehyde in PBS for 5 minutes, washed with PBS, stained with 10 μg/ml DAPI (Sigma) for 2 minutes, washed with PBS, and visualized under UV light using a fluorescent microscope. About 300-400 cells were examined under the microscope to determine the percentage of apoptotic cells.
Cell DNA nick end labeling (TUNEL) (Gavrieli, Y. et al., J. Cell. Biol., 119:493-501 (1992)) assay was performed using a kit purchased from Boehringer Mannheim as described by the manufacturer.
Protection against apoptosis of PC12 cells in serum-free medium containing a test agent (agent N) (e.g., protection induced by TS, TS fragments, NGF or other growth factors), was calculated by the formula: 100%−[(apoptosis(%) of cells kept in RPMI containing test agent N÷apoptosis (%) of cells kept in RPMI)×100%]. Testing the effect of Wortmannin (Sigma) and LY294002 (Sigma) in inhibiting the neuroprotection of TS was performed following the protocol described by others (Yao, R., and Cooper, G., Science, 267:2003-2006 (1995); D'Mello, et al., J. Neurosci., 17:1548-1560 (1997)). In brief, PC12 cells were switched from growth medium to RPMI without and with TS or various other growth factors. After 24 hours, Wortmannin and LY294002 were added to the cultures. After another 24 hours, cells were examined for apoptosis by the DAPI assay, as above.

human Schwann cells = assay: Serum withdrawal-induced apoptosis of Schwann cells (DAPI); type: cell-based
Akt kinase [1] = assay: Immunodetection of activated Akt in PC12 cells; type: cell-based; details: Western blot, phospho-Akt (Ser 473) antibody; 100 ng/ml
Procedure: PC12 cells were deprived of serum for 24-48 hours, stimulated with TS, TS-F or LTR for 2, 5 or 10 minutes and immediately lysed with 2% SDS. In studies using the PI-3 kinase inhibitor, LY294002 (LY), cells were pre-treated with the inhibitor (1 μM) for 30 min prior to the addition of TS-F or TS. The proteins in the cell lysate were separated in SDS-10% polyacrylamide gels, transferred to nitrocellulose membrane (Bio-Rad) and the phosphorylated form of protein kinase Akt was detected with phospho-Akt (Ser 473) antibody (New England BioLabs, Beverly, Mass.), followed by alkaline phosphatase-conjugated secondary antibody (Promega, Madison, Wis.). Bands corresponding to phospho-Akt (60 kDa) were quantified using a scanning densitometer (Bio-Rad).

IL-6 = IL-6 secretion by T-24 carcinoma cells (ELISA); type: cell-based, human; details: 24 hours
Procedure: Primary cultures of human intestinal microvascular endothelial cells (HIMEC) isolated from normal jejunal mucosa/submucosal tissue were prepared as described (Strong et al., Gastroenterology 114:1244-1256 (1998)). The HIMEC were cultured in fibronectin-coated plasticware in MCDB medium (Sigma) supplemented with 20% FBS, 90 μg/ml heparin and 50 μg/ml endothelial cell growth factor (Sigma). T-24 cells (ATCC Accession No. HTB-4) were cultured in M199 medium supplemented with 10% FBS. PBMC were purified by Ficoll-Paque gradient as described (Current Protocols in Immunology, pp 7.1.1-7.1.2). Vero cells (ATCC Accession No. CCL-81) were grown in RPMI medium with 5% Nu serum and infected with the Silvio X-10/4 of T. cruzi as described previously (Chuenkova et al., J. Exp. Med. 181:1693-1703 (1995)).
Endothelial cells and T-24 cells were plated on 24-well plates at a density of 1×10^3 cells/well, while peripheral blood mononuclear cells (PBMC) were plated in the similar wells at 1×10^6/well. Triplicat cultures of cells were incubated test agents for a predetermined amount of time. […] Cytokines and chemokines released in the culture supernatants were measured by ELISA assay following the instructions of the manufacturer (Endogen). The cytokines tested were IL-1β, IL-4, IL-8, […], IL-12, IFN-γ, TNF-α, and the chemokines RANTES and MCP-1. Negative controls were cells incubated in medium containing polymixin B at 10 μg/ml, and positive controls were cells incubated with bacterial LPS at the low ng/ml range (for PBMC or HIMEC) or in the μg/ml range for carcinoma T-24 cells. In some experiments, IL-1β or TNFα were used as positive control for cytokine release.

Trans-sialidase assay = type: biochemical
Procedure: The trans-sialidase assay was performed as described (Scudder, P. et al., J. Biol. Chem., 268:9886-9891 (1993)) with slight modifications. Various amounts of intact enzyme or enzyme fragments were added to 50 mM PBS, Ph 7.2, containing 15% fetal calf serum and […] of [^14C]N-acetyllactosamine (4×10^5 dpm), 50 μg BSA and 0.02% NaN3 in a volume of 60 μl. After incubation for a predetermined amount of time at room temperature, the reaction mixture was diluted to 1.0 ml with distilled water and applied to a column containing 1.0 ml Q-Sepharose equilibrated with water. Sialylated product was eluted with 1 M NaCl and quantified by scintillation counting.
TS enzymatic activity was measured by the sialylation of the acceptor ^14C-labeled N-acetyllactosamine on anion exchange resins (Scudder, P. et al., J. Biol. Chem. 268:9886-9891 (1993)). Recombinant TSA-1, was expressed on insect sf9 cells and purified from serum-free medium by ion exchange chromatography (monoQ) and preparative SDS-PAGE (Wrightsman, R. A. et al., J. Immunol., 153:3148-3154 (1994).

Akt kinase [2] = assay: Immunodetection and kinase assay of activated Akt in Schwann cells
Procedure: Schwann cells, grown in 10% FCS to 70% confluency in 6-well plates, were switched to DMEM containing 0.1% FCS for 48 hours to reduce basal Akt phosphorylation. Then the cells were placed in serum-free DMEM medium for 2 hours and challenged with TS, CD or other test factors for predetermined periods of time. When the PI-3 kinase inhibitor LY294002 (Sigma) was used, the inhibitor was added to the serum-starved cells 30 minutes before challenge with TS or CD. Cell samples were lysed with lysis buffer (20 mM Tris, pH 7.5, 150 mM NaCl, 1 mM EDTA, 1% Triton X-100 (t-Octylphenoxypolyethoxyethanol), 2.5 mM sodium pyrophosphate, 1 mM glycerophosphate, 1 mM Na3VO4, 1 μg/ml leupeptin and 1 mM Phenymethylsulfonyl fluoride (PMSF)). Samples (40 μg) were run on 10% SDS-Page, blotted to nitrocellulose paper and analyzed by Western (immuno) blot with monoclonal antibody specific for P-Ser473 of Akt (New England Biolabs). Reaction was visualized by chemiluminescence using the ECL kit (New England Nuclear).
Enzymatic activity of Akt kinase was assessed using the synthetic substrate GSK-3α-fusion protein (Cell Signaling Technology, Beverly, Mass.), according to the protocol provided by Cell Signaling Technology. In short, lysates of Schwann cells subjected to various treatments were immunoprecipitated with Akt antibody coupled to agarose beads, and the immunoprecipitates incubated with GSK-3α-fusion protein as the substrate for Akt phosphorylation, in the presence of 200 μM ATP. Phosphorylation of GSK-3 fusion protein was detected by Western blot using phospho-GSK-3αβ (Ser21/9)-specific antibody (Cell Signaling Technology). The reaction product was identified by chemiluminescence using the ECL kit (New England Nuclear).

B1: TS-F: recombinant full catalytic domain of TS, amino acid residues 33-666 (protein, listed as Trypanosoma cruzi)
chain: ETQIAIKNSRVSSVSRVVDPTVIVKGNKLYVLVGSYYSSRSYWSSHGDARDWDILLAVGEVTKSTAGGKITASIKWGSPVSLKKFFPAEMEGMHTNQFLGGAGVAIVASNGNLVYPVQVTNKRKQVFSKIFYSEDDGKTWKFGKGRSDFGCSEPVALEWEGKLIINTRVDWKRRLVYESSDMEKPWVEAVGTVSRVWGPSPKSNQPGSQTSFTAVTIEGMRVMLFTHPLNFKGRCVRDRLNLWLTDNQRIYNVGQVSIGDENSAYSSVLYKDDKLYCLHEINTDEVYSLVFARLVGELRIIKSVLRSWKNWTATCPAFAPLLIQPLRRQRVVVVPLSPRLVLLAFCRQRLPKRMGGSYRCVNASTANAERVRNGLKFAGVGGGALWPVSQQGQNQRYRFANHAFTLVASVTIHEAPRAASPLLGASLDSSGGKKLLGLSYDEKHQWQPIYGSTPVTPTGSWETGKRYHLVLTMANKIGSVYIDGELLEGSGQTVVPDGRTPDISHFYVGGYKRSDMPTISHVTVNNVLLYNRRQLNTEEIRTLFLSQDLIGTEAHMDSSSDSSAHSTPSTPADSSAHSTPSTPVDSSAHSTPSTPADSSAHGTPSTPVDSSAHGTPSTPADSSAHGTPSTPVDS
neurite outgrowth in N18 cells (neuroblastoma N18 cells): induced neurite outgrowth to about the same extent as the intact enzyme | protection of PC12 cells from apoptosis induced by trophic factor withdrawal (PC12 cells): PC12 cell survival being induced by TS-F | survival of Schwann cells transfected with dominant negative PTEN mutant (pG129R) (human Schwann cells; CD 500 ng/ml): did not detectably enhance Akt phosphorylation and survival | survival of control Schwann cells transfected with GFP vector (human Schwann cells; CD 500 ng/ml, serum-free, 48 hours): did increase survival of the cells | survival of Schwann cells over expressing kinase-inactive Akt (AktKI) (human Schwann cells; CD 500 ng/ml, serum-free, 48 hours, listed as CD): did not increase survival of the cells; also recorded: did not promote survival | fragmented nuclei in Schwann cells transfected with empty vector (neo) (human Schwann cells; CD 500 ng/ml, serum-starved): decreased the number of fragmented nuclei by about ten-fold | rescue from apoptosis of Schwann cells over expressing PTEN (human Schwann cells; CD 500 ng/ml, listed as CD): did not rescue cells from apoptotic death; also recorded: did not rescue Schwann cells that over expressed PTEN from apoptosis | inhibition of serum withdrawal-induced apoptosis of Schwann cells (human Schwann cells; serum-free DMEM, 24-72 hours, listed as CD): protected Schwann cells against apoptosis; also recorded: nearly as effective in protecting Schwann cells from apoptosis as 2% serum; also recorded: protected human Schwann cells from apoptosis; also recorded: nearly as effective as 2% serum at inhibiting apoptosis; also recorded: dose-dependent inhibition of serum withdrawal-induced apoptosis | phosphorylation (activation) of Akt kinase in PC12 cells (Akt kinase [1]): effective in activating Akt | IL-6 secretion by T-24 cells (IL-6): did not promote IL-6 release from T-24 cells | trans-sialidase (enzymatic) activity (Trans-sialidase assay): enzymatically active | Akt phosphorylation in Schwann cells transfected with dominant negative PTEN mutant (Akt kinase [2]; CD 500 ng/ml): did not detectably enhance Akt phosphorylation | Akt phosphorylation in Schwann cells transfected with empty vector (neo) (Akt kinase [2]; CD 500 ng/ml): boosted levels of phospho-Akt | time within which CD activated Schwann cell Akt kinase (Akt kinase [2]; CD 500 ng/ml): 1 to 5 min | transience of Akt activation in Schwann cells (Akt kinase [2]; CD 500 ng/ml): phospho-Akt not detected after 15 min | Akt kinase activity in control GFP-transfected Schwann cells (Akt kinase [2]; CD 500 ng/ml, 2 minutes, GSK-3α substrate): stimulation of Akt activity | Akt kinase activity in Schwann cells over expressing AktKI (Akt kinase [2]; CD 500 ng/ml, 2 minutes, GSK-3α substrate, listed as CD): inability of CD to enhance endogenous Akt enzymatic activity; also recorded: did not activate Akt kinase | Akt phosphorylation in Schwann cells over expressing PTEN (Akt kinase [2]; CD 500 ng/ml, listed as CD): did not result in the generation of phospho-Akt; also recorded: did not induce phosphorylation of Akt kinase | phosphorylation (activation) of Akt kinase in Schwann cells (Akt kinase [2]; Western blot P-Akt (Ser473), listed as CD): induced transient phosphorylation of Akt kinase

— patent publication US20090117593A1, “T. Cruzi-derived neurotrophic agents and methods of use therefor” (Tufts University, priority 2006, published 2009)
